Assay results reported in the nanobody polyreactivity screen of Harvey et al. (2022).

Assay: yeast display, Sf9 membrane polyspecificity reagent, FACS + sequencing; frameworks hold sequencing errors
In short: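 Galactose induction of a Saccharomyces cerevisiae BJ5465 synthetic nanobody display library ran 36–48 hours. The cells were then stained for 1 hour at 4 °C with 10% biotinylated, detergent-solubilized Sf9 membrane reagent, pulled down on streptavidin microbeads and FACS-sorted into low and high (top ~1%) gates on expression and reagent-binding fluorescence. Labels for polyreactivity follow the gate of origin.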

Row | Sequence | polyreactivity (PSR sort gate)
1 | QVQLVESGGGLVQAGGSLRLSCAASGRTFPLYAMGWYIQAPGKERELVAAITRSGGSTYYADSVKGRFTISRDNAKNTVYLQMNSLKPEDTAVYYCNARKSKDRPTGYAFNYWGQGTQVTVSS | high polyreactivity
2 | QVQLVESGGGLVQAGGSLRLSCAASGRTFPLYAMGWYRQAPGKERELVAAISYICGSTYYADSVKGLFTISRDNAKNTVYLQMNSLKPEDTAVYYCNADYNYAYDYWGQGTQVTVSS | low polyreactivity
3 | QVQLVESGGGLVQAGGSLRLSCAASGRTFPLYAMGWYRQAPGKERELVARINRGGSTYYADSVKGRFTISRDNAKNTVYLQMNSLKPEDTAVYYCNARHTWHQTYDYWGQGTQVTVSS | low polyreactivity
4 | QVQLVESGGGLVQAGGSLRLSCAASGRTFPLYAMGWYRQAPGKERELVASITSDSSTYYADSVKGRFTISRDNAKNTVYLQMNSLKPEDTAVYYCAATTIPYPYTEFDYWGQGTQVTVSS | low polyreactivity
5 | QVQLVESGGGLVQAGGSLRLSCAASGRTFPNYVIGWYRQATGKERELVAAINSGGRTNYADSVKGRFTISRDNAKNTVYLQMNRLKQEDTAFYFCTKRGHPARLGYYYWGQGTQVTVSS | low polyreactivity
6 | QVQLVESGGGLVQAGGSLRLSCAASGRTFPPYGMGWNRQAPGKERELVADISKSSGSTNYADSVKARFTISRDKAKNTVYLQMNSVKPEDTAVYYCNVDLYRWSKLAGAYRMDYSGQGTQVTVSS | low polyreactivity
7 | QVQLVESGGGLVQAGGSLRLSCAASGRTFPRNGMGWYRQAPGKERELVAAIRYSGGSTYYADSVKGRFTISRDNAKNTVYLQMNSLKPEDTAVYYWAAGRNRAGGFGSWGQGTQVTVSS | high polyreactivity
8 | QVQLVESGGGLVQAGGSLRLSCAASGRTFPRNGMGWYRQAPGKERELVAAISWSGGRTYYADSVKGRFTISRDNAKYTVYLQMNSLKPEDTAVYYCNALYFRKGGYWGHGTQVTVSS | high polyreactivity
9 | QVQLVESGGGLVQAGGSLRLSCAASGRTFPRYAMGWYRQAPGKERELVAAISVRAGITYYADSVKGRFTISRDNAKNTVYLQMKSLKPEDTADYYCAKDHWTSSYDEGDYWGQGTQVTVSS | low polyreactivity
10 | QVQLVESGGGLVQAGGSLRLSCAASGRTFPRYAMGWYRQAPGKERELVAAITRRGSSTYYADSVKGRFTISRDNAKNTVYLQMNSLKPEDTAVYYCATSYHGYYYRYDYWGQGTQVTVSS | high polyreactivity
11 | QVQLVESGGGLVQAGGSLRLSCAASGRTFPRYTMGWYRPAPGKERELVAASATGGSTYYADSVKGRFTISRDNAKNTVYLQMNSLKPEDTAVYYCAARPYSNRYVLGVYYWGQGTQVTVSS | high polyreactivity
12 | QVQLVESGGGLVQAGGSLRLSCAASGRTFPSYAMGWYRQAPGKERELVAAISSRGSRTYYADSVKGRFTISRDNAKNTVYLQMNSLKPEDTAVYYCAAKNLWTRKSRYDYWGQGTQVTVSS | high polyreactivity
13 | QVQLVESGGGLVQAGGSLRLSCAASGRTFPSYTMGWYRQAPGKERELVAAITWTGGSTYYADSVKGRFTISRDNAKNTVYLQINSLKREDTAVYYCADYEYWGQGTQVTVSS | low polyreactivity
14 | QVQLVESGGGLVQAGGSLRLSCAASGRTFPSYTMGWYRQAPGKERELVAAITWTGGSTYYADSVKGRFTISRDNAKNTVYLQMNSLKPEDTAVYYCADYDYWGLGTQVTVSS | low polyreactivity
15 | QVQLVESGGGLVQAGGSLRLSCAASGRTFPSYTMGWYSQAPGKERELVAAITWTGGSTYYADSVKGRFTISRDNAKNTVYLQMNSLKPEDTAVYYCADYDYWGQGTQVTVSS | low polyreactivity
16 | QVQLVESGGGLVQAGGSLRLSCAASGRTFPTNAMGWYRQAPGKERELVARISTRGGSTYYADSVKGRFTISRDNAKNTVYLQMNSLKPEDTAVYYCAARYQGNYRTDKYDYWGQGTQVTVSS | high polyreactivity
17 | QVQLVESGGGLVQAGGSLRLSCAASGRTFPTYAMGWDRQAPGKERELVAAITTSGGSTYADSVMGRFTISRDNAKNTVYLQMNSLKPEDTAVYYCATRSFYGGYYYSSGSEFDYWGQGTQVTVSS | low polyreactivity
